Test results as given in patent US11325966.

How the values were obtained:
Assay in all cases: cell-based or functional assay
[1] = biological target: HIV-1 Env of pseudovirus HIV-16845-2.22 (HIV-1)
[2] = biological target: HIV-1 Env of pseudovirus BJOX025000.01.1 (HIV-1)
[3] = biological target: HIV-1 Env of pseudovirus A07412M1.vrc12 (HIV-1)
[4] = biological target: HIV-1 Env of pseudovirus 3301.v1.c24 (HIV-1)
[5] = biological target: HIV-1 Env of pseudovirus 3365.v2.c2 (HIV-1)
[6] = biological target: HIV-1 Env of pseudovirus SC05_8C11_2344 (HIV-1)
[7] = biological target: HIV-1 Env of pseudovirus 249M B10 (HIV-1)
[8] = biological target: HIV-1 Env of pseudovirus 6540.v4.c1 (HIV-1)
[9] = biological target: HIV-1 Env of pseudovirus 191084 B7-19 (HIV-1)
[10] = biological target: HIV-1 Env of pseudovirus ZM249M.PL1 (HIV-1)
[11] = biological target: HIV-1 Env of pseudovirus 211-9 (HIV-1)
[12] = biological target: HIV-1 Env of pseudovirus WEAU_d15_410_787 (HIV-1)
[13] = biological target: HIV-1 Env of pseudovirus 191821_E6_1 (HIV-1)
[14] = biological target: HIV-1 Env of pseudovirus ZM109F.PB4 (HIV-1)
[15] = biological target: HIV-1 Env of pseudovirus Q461.e2 (HIV-1)
[16] = biological target: HIV-1 Env of pseudovirus Ce2060_G9 (HIV-1)
[17] = biological target: HIV-1 Env of pseudovirus 6952.v1.c20 (HIV-1)
[18] = biological target: HIV-1 Env of pseudovirus CNE58 (HIV-1)
[19] = biological target: HIV-1 Env of pseudovirus 1054_07_TC4_1499 (HIV-1)
[20] = biological target: HIV-1 Env of pseudovirus Ce0682_E4 (HIV-1)
[21] = biological target: HIV-1 Env of pseudovirus PVO.4 (HIV-1)
[22] = biological target: HIV-1 Env of pseudovirus HIV-16055-2.3 (HIV-1)
[23] = biological target: HIV-1 Env of pseudovirus X1193_c1 (HIV-1)
[24] = biological target: HIV-1 Env of pseudovirus WITO4160.33 (HIV-1)
[25] = biological target: HIV-1 Env of pseudovirus BJOX015000.11.5 (HIV-1)
[26] = biological target: HIV-1 Env of pseudovirus QH0692.42 (HIV-1)
[27] = biological target: HIV-1 Env of pseudovirus RHPA4259.7 (HIV-1)
[28] = biological target: HIV-1 Env of pseudovirus T278-50 (HIV-1)
[29] = biological target: HIV-1 Env of pseudovirus X1254_c3 (HIV-1)
[30] = biological target: HIV-1 Env of pseudovirus 231966.c02 (HIV-1)
[31] = biological target: HIV-1 Env of pseudovirus X1632_S2_B10 (HIV-1)
[32] = biological target: HIV-1 Env of pseudovirus BJOX009000.02.4 (HIV-1)
[33] = biological target: HIV-1 Env of pseudovirus 6041.v3.c23 (HIV-1)
[34] = biological target: HIV-1 Env of pseudovirus 6480.v4.c25 (HIV-1)
[35] = biological target: HIV-1 Env of pseudovirus 62357_14_D3_4589 (HIV-1)
[36] = biological target: HIV-1 Env of pseudovirus HIV-001428-2.42 (HIV-1)
[37] = biological target: HIV-1 Env of pseudovirus 1006_11_C3_1601 (HIV-1)
[38] = biological target: HIV-1 Env of pseudovirus SC422661.8 (HIV-1)
[39] = biological target: HIV-1 Env of pseudovirus CAP45.2.00.G3 (HIV-1)

Substance: PGT121 (antibody)
- IC50 in TZM-bl assay [1]: 8.51 µg/mL
- IC80 in TZM-bl assay [1]: > 10 µg/mL
- IC50 in TZM-bl assay [2]: > 10 µg/mL
- IC80 in TZM-bl assay [2]: > 10 µg/mL
- IC50 in TZM-bl assay [3]: 0.034 µg/mL
- IC80 in TZM-bl assay [3]: 0.255 µg/mL
- IC50 in TZM-bl assay [4]: 0.013 µg/mL
- IC80 in TZM-bl assay [4]: 0.041 µg/mL
- IC50 in TZM-bl assay [5]: 0.243 µg/mL
- IC80 in TZM-bl assay [5]: 2.13 µg/mL
- IC50 in TZM-bl assay [6]: 0.03 µg/mL
- IC80 in TZM-bl assay [6]: 0.108 µg/mL
- IC50 in TZM-bl assay [7]: > 10 µg/mL
- IC80 in TZM-bl assay [7]: > 10 µg/mL
- IC50 in TZM-bl assay [8]: > 10 µg/mL
- IC80 in TZM-bl assay [8]: > 10 µg/mL
- IC50 in TZM-bl assay [9]: 0.038 µg/mL
- IC80 in TZM-bl assay [9]: 0.118 µg/mL
- IC50 in TZM-bl assay [10]: > 10 µg/mL
- IC80 in TZM-bl assay [10]: > 10 µg/mL
- IC50 in TZM-bl assay [11]: 0.866 µg/mL
- IC80 in TZM-bl assay [11]: 6.63 µg/mL
- IC50 in TZM-bl assay [12]: 0.017 µg/mL
- IC80 in TZM-bl assay [12]: 0.062 µg/mL
- IC50 in TZM-bl assay [13]: > 10 µg/mL
- IC80 in TZM-bl assay [13]: > 10 µg/mL
- IC50 in TZM-bl assay [14]: 8.92 µg/mL
- IC80 in TZM-bl assay [14]: > 10 µg/mL
- IC50 in TZM-bl assay [15]: > 10 µg/mL
- IC80 in TZM-bl assay [15]: > 10 µg/mL
- IC50 in TZM-bl assay [16]: > 10 µg/mL
- IC80 in TZM-bl assay [16]: > 10 µg/mL
- IC80 in TZM-bl assay [17]: 0.348 µg/mL
- IC50 in TZM-bl assay [18]: > 10 µg/mL
- IC80 in TZM-bl assay [18]: > 10 µg/mL
- IC50 in TZM-bl assay [19]: 0.041 µg/mL
- IC80 in TZM-bl assay [19]: 0.299 µg/mL
- IC50 in TZM-bl assay [20]: > 10 µg/mL
- IC80 in TZM-bl assay [20]: > 10 µg/mL
- IC50 in TZM-bl assay [21]: 0.094 µg/mL
- IC80 in TZM-bl assay [21]: 0.45 µg/mL
- IC50 in TZM-bl assay [22]: 0.772 µg/mL
- IC80 in TZM-bl assay [22]: 7.99 µg/mL
- IC80 in TZM-bl assay [23]: 0.088 µg/mL
- IC50 in TZM-bl assay [24]: 0.301 µg/mL
- IC80 in TZM-bl assay [24]: 3.2 µg/mL
- IC50 in TZM-bl assay [25]: > 10 µg/mL
- IC80 in TZM-bl assay [25]: > 10 µg/mL
- IC50 in TZM-bl assay [26]: 0.498 µg/mL
- IC80 in TZM-bl assay [26]: 8.51 µg/mL
- IC50 in TZM-bl assay [27]: 0.013 µg/mL
- IC80 in TZM-bl assay [27]: 0.046 µg/mL
- IC50 in TZM-bl assay [28]: > 10 µg/mL
- IC80 in TZM-bl assay [28]: > 10 µg/mL
- IC80 in TZM-bl assay [29]: 0.085 µg/mL
- IC50 in TZM-bl assay [30]: > 10 µg/mL
- IC80 in TZM-bl assay [30]: > 10 µg/mL
- IC50 in TZM-bl assay [31]: > 10 µg/mL
- IC80 in TZM-bl assay [31]: > 10 µg/mL
- IC50 in TZM-bl assay [32]: 9 µg/mL
- IC80 in TZM-bl assay [32]: > 10 µg/mL
- IC50 in TZM-bl assay [33]: > 10 µg/mL
- IC80 in TZM-bl assay [33]: > 10 µg/mL
- IC50 in TZM-bl assay [34]: 0.008 µg/mL
- IC50 in TZM-bl assay [35]: 6.21 µg/mL
- IC80 in TZM-bl assay [35]: > 10 µg/mL
- IC50 in TZM-bl assay [36]: 0.02 µg/mL
- IC80 in TZM-bl assay [36]: 0.126 µg/mL
- IC50 in TZM-bl assay [37]: 0.002 µg/mL
- IC80 in TZM-bl assay [37]: 0.008 µg/mL
- IC50 in TZM-bl assay [38]: 0.079 µg/mL
- IC80 in TZM-bl assay [38]: 0.373 µg/mL
- IC50 in TZM-bl assay [39]: 1.3 µg/mL
- IC80 in TZM-bl assay [39]: > 10 µg/mL
